PMC3842988 (Molecular Biology of the Cell, 2013)

Target: T1, FLAG-Htt103Q-GFP (Huntingtin with 103Q glutamine stretch, lacking the proline-rich region) (UniProt P42858 1-17)
T1 chain: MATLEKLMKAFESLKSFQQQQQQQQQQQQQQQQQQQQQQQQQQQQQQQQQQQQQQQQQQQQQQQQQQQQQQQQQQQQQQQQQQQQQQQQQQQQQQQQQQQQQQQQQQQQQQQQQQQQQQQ
Test: co-IP

| Binder | fold change of the co-precipitate, Sti1 elevated against endogenous Sti1 |
| --- | --- |
| Sis1 (type II Hsp40) (natural protein) MVKETKLYDLLGVSPSANEQELKKGYRKAALKYHPDKPTGDTEKFKEISEAFEILNDPQKREIYDQYGLEAARSGGPSFGPGGPGGAGGAGGFPGGAGGFSGGHAFSNEDAFNIFSQFFGGSSPFGGADDSGFSFSSYPSGGGAGMGGMPGGMGGMHGGMGGMPGGFRSASSSPTYPEEETVQVNLPVSLEDLFVGKKKSFKIGRKGPHGASEKTQIDIQLKPGWKAGTKITYKNQGDYNPQTGRRKTLQFVIQEKSHPNFKRDGDDLIYTLPLSFKESLLGFSKTIQTIDGRTLPLSRVQPVQPSQTSTYPGQGMPTPKNPSQRGNLIVKYKVDYPISLNDAQKRAIDENF | ~4 fold |
| Ssa1 (Hsp70) (natural protein) not shown | > 2 fold |
